The target of this assay is Xop411 p09, major capsid subunit (major coat protein) (Xanthomonas oryzae phage Xop411). In words: SDS-PAGE of virion proteins with LC-MS/MS of the bands.

Several values for one entry are separate records, joined by “and”; a condition that tells them apart may be missing. Identical values can stand only once.

Take “Xop411 p09, major capsid subunit (major coat protein) (natural protein)”: the stoichiometry N (as a rule, the number of molecules, sites or subunits per partner or assembly) was 2 subunits and 6 subunits.

The values are drawn from PMC2248197.
